The experiment addresses T1, Ras (aa 1-166), bacterially expressed and purified (H-Ras) (UniProt P01112 1-166).
T1 construct: H-Ras aa 1-166 (all Ras constructs were the H-Ras isoform); Used loaded with GDP, loaded with GTPγS, or nucleotide-free (incubated with EDTA without added nucleotide); the nucleotide state is told by the assay; also called Ras 1-166; Ras-GDP; source: E. coli BL21 (pQlink Ras 1-166), purified on nickel beads, His tag cleaved with TEV protease
The experiment can be described thus: pull-down; nucleotide-free Ras: 250 nM Ras with 850 nM GST protein on glutathione beads in Loading Buffer (15 mM EDTA, 5 mM MgCl2), 30 min at 30°C, no added nucleotide. The conditions noted are these: both partners purified.

B1: GST-PI3KC2β-RBD (aa 368-463) (domain or fragment, UniProt O00750 368-463, looked up)
chain: SPEHLGDEVNLKVTVLCDRLQEALTFTCNCSSTVDLLIYQTLCYTHDDLRNVDVGDFVLKPCGLEEFLQNKHALGSHEYIQYCRKFDIDIRLQLME
notes: also called RBD of PI3KC2β; source: E. coli BL21 (DE3), purified on Glutathione Sepharose beads
Regarding B1, the binding result is given as “binds”.
